According to patent US20120172295A1 (INDIANA UNIVERSITY RESEARCH AND TECHNOLOGY, published 2012):
Read-outs that look alike come from different tables or passages of the source. Positions of bridges follow the written chain, without caps; N, C: chain ends. Non-standard residues stand in square brackets, D forms with d. Groups on a side chain read outwards from the residue. No end group written: not given here. *: point of attachment. Palmitoyl = CCCCCCCCCCCCCCCC(=O)*; Aib = CC(C)(N)C(=O)O

Key:
Assay in all cases: cell-based or functional assay
[1] = molecular target: T1, glucagon receptor (UniProt P47871 26-477, limits assumed)
T1 sequence (P47871 26-477 limits assumed): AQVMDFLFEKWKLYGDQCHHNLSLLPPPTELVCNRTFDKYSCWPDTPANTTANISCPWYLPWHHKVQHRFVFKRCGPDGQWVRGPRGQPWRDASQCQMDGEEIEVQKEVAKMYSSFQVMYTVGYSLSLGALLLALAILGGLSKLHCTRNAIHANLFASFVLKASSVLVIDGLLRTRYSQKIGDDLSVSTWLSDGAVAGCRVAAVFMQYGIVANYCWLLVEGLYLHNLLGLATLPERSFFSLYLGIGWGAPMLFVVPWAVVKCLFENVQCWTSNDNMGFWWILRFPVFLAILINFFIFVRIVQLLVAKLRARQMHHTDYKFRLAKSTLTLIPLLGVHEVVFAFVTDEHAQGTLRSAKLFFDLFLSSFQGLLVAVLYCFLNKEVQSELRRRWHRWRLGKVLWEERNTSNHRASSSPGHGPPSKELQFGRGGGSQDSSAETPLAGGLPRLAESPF

[2] = molecular target: T1, glucagon receptor; remark: listed apart in the source
[3] = molecular target: T2, GLP-1 receptor (UniProt P43220 24-463, limits assumed)
[4] = molecular target: T1, glucagon receptor; remark: listed apart in the source
[5] = molecular target: T2, GLP-1 receptor; remark: listed apart in the source
[6] = molecular target: T1, glucagon receptor; remark: listed apart in the source
[7] = molecular target: T2, GLP-1 receptor; remark: listed apart in the source
[8] = molecular target: T1, glucagon receptor; remark: listed apart in the source
[9] = molecular target: T2, GLP-1 receptor; remark: listed apart in the source
[10] = molecular target: T1, glucagon receptor; remark: listed apart in the source
[11] = molecular target: T2, GLP-1 receptor; remark: listed apart in the source
[12] = molecular target: T1, glucagon receptor; remark: listed apart in the source
[13] = molecular target: T2, GLP-1 receptor; remark: listed apart in the source
[14] = molecular target: T3, GIP receptor (UniProt P48546 22-466)
T3 sequence (looked up): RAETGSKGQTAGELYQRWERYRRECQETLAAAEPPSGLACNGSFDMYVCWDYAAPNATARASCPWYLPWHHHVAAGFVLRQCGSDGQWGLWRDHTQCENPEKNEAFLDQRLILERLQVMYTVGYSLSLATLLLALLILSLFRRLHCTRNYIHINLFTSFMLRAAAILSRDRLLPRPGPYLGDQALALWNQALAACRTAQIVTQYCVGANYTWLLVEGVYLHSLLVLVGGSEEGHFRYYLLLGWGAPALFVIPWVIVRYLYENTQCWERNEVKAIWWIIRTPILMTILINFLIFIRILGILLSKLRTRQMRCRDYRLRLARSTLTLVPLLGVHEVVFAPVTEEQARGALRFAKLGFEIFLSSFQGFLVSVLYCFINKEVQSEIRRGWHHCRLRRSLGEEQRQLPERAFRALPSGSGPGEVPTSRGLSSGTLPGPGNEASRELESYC

[15] = molecular target: T2, GLP-1 receptor; remark: listed apart in the source
[16] = molecular target: T1, glucagon receptor; remark: listed apart in the source
[17] = molecular target: T2, GLP-1 receptor; remark: listed apart in the source
[18] = molecular target: T3, GIP receptor; remark: listed apart in the source
[19] = molecular target: T1, glucagon receptor; remark: listed apart in the source
[20] = molecular target: T2, GLP-1 receptor; remark: listed apart in the source
[21] = molecular target: T3, GIP receptor; remark: listed apart in the source
[22] = molecular target: T1, glucagon receptor; remark: listed apart in the source
[23] = molecular target: T2, GLP-1 receptor; remark: listed apart in the source

HSEGTFTSDYSKYLDEQAAKEFIC(PEG 20 kDa)WLMNT-NH2 [Peptide V]
glucagon agonism [1]: > 10 fold

HSEGTFTSDYSKYLDERRAQDFVQWLMNT-NH2 [E3, E16 Gluc-NH2]
Percent Potency Relative to Native Ligand [2]: 1.6% | Percent Potency Relative to Native Ligand [3]: 28.8%

B1: AIB2, AIB16, K10(C16), K30 Glucagon Amide (peptide)
peptide: H[Aib]QGTFTSDK(Palmitoyl)SKYLD[Aib]RRAQDFVCWLMNTK-NH2
modifications: N-terminus assumed
SMILES: CCCCCCCCCCCCCCCC(=O)NCCCC[C@H](NC(=O)[C@H](CC(=O)O)NC(=O)[C@H](CO)NC(=O)[C@@H](NC(=O)[C@H](Cc1ccccc1)NC(=O)[C@@H](NC(=O)CNC(=O)[C@H](CCC(N)=O)NC(=O)C(C)(C)NC(=O)[C@@H](N)Cc1c[nH]cn1)[C@@H](C)O)[C@@H](C)O)C(=O)N[C@@H](CO)C(=O)N[C@@H](CCCCN)C(=O)N[C@@H](Cc1ccc(O)cc1)C(=O)N[C@@H](CC(C)C)C(=O)N[C@@H](CC(=O)O)C(=O)NC(C)(C)C(=O)N[C@@H](CCCNC(=N)N)C(=O)N[C@@H](CCCNC(=N)N)C(=O)N[C@@H](C)C(=O)N[C@@H](CCC(N)=O)C(=O)N[C@@H](CC(=O)O)C(=O)N[C@@H](Cc1ccccc1)C(=O)N[C@H](C(=O)N[C@@H](CS)C(=O)N[C@@H](Cc1c[nH]c2ccccc12)C(=O)N[C@@H](CC(C)C)C(=O)N[C@@H](CCSC)C(=O)N[C@@H](CC(N)=O)C(=O)N[C@H](C(=O)N[C@@H](CCCCN)C(N)=O)[C@@H](C)O)C(C)C
EC50 [4]: 0.761 nM | EC50 (20% human plasma) [4]: 0.313 nM | EC50 (20% human plasma) [5]: 0.017 nM

B2: Glucagon (1-29a) Aib2 Lys10-Trp-C16 Aib16 Aib20 Cys24 (peptide)
peptide: H[Aib]QGTFTSDK([Trp-Palmitoyl])SKYLD[Aib]RRA[Aib]DFVCWLMNT-NH2
modifications: N-terminus assumed
SMILES: CCCCCCCCCCCCCCCC(=O)N[C@@H](Cc1c[nH]c2ccccc12)C(=O)NCCCC[C@H](NC(=O)[C@H](CC(=O)O)NC(=O)[C@H](CO)NC(=O)[C@@H](NC(=O)[C@H](Cc1ccccc1)NC(=O)[C@@H](NC(=O)CNC(=O)[C@H](CCC(N)=O)NC(=O)C(C)(C)NC(=O)[C@@H](N)Cc1c[nH]cn1)[C@@H](C)O)[C@@H](C)O)C(=O)N[C@@H](CO)C(=O)N[C@@H](CCCCN)C(=O)N[C@@H](Cc1ccc(O)cc1)C(=O)N[C@@H](CC(C)C)C(=O)N[C@@H](CC(=O)O)C(=O)NC(C)(C)C(=O)N[C@@H](CCCNC(=N)N)C(=O)N[C@@H](CCCNC(=N)N)C(=O)N[C@@H](C)C(=O)NC(C)(C)C(=O)N[C@@H](CC(=O)O)C(=O)N[C@@H](Cc1ccccc1)C(=O)N[C@H](C(=O)N[C@@H](CS)C(=O)N[C@@H](Cc1c[nH]c2ccccc12)C(=O)N[C@@H](CC(C)C)C(=O)N[C@@H](CCSC)C(=O)N[C@@H](CC(N)=O)C(=O)N[C@H](C(N)=O)[C@@H](C)O)C(C)C
EC50 [6]: 2.06 nM | EC50 [7]: 1.15 nM

HSQGTFTSDYSRYLDSRRAQDFVQWLMNK [Glucagon R12 K29]
cAMP induction EC50 [8]: 0.81 nM | cAMP induction EC50 [9]: 0.41 nM

B3: Glucagon (1-29a) Aib2 Aib16 (peptide)
peptide: H[Aib]QGTFTSDYSKYLD[Aib]RRAQDFVQWLMNT-NH2
modifications: N-terminus assumed
SMILES: CSCC[C@H](NC(=O)[C@H](CC(C)C)NC(=O)[C@H](Cc1c[nH]c2ccccc12)NC(=O)[C@H](CCC(N)=O)NC(=O)[C@@H](NC(=O)[C@H](Cc1ccccc1)NC(=O)[C@H](CC(=O)O)NC(=O)[C@H](CCC(N)=O)NC(=O)[C@H](C)NC(=O)[C@H](CCCNC(=N)N)NC(=O)[C@H](CCCNC(=N)N)NC(=O)C(C)(C)NC(=O)[C@H](CC(=O)O)NC(=O)[C@H](CC(C)C)NC(=O)[C@H](Cc1ccc(O)cc1)NC(=O)[C@H](CCCCN)NC(=O)[C@H](CO)NC(=O)[C@H](Cc1ccc(O)cc1)NC(=O)[C@H](CC(=O)O)NC(=O)[C@H](CO)NC(=O)[C@@H](NC(=O)[C@H](Cc1ccccc1)NC(=O)[C@@H](NC(=O)CNC(=O)[C@H](CCC(N)=O)NC(=O)C(C)(C)NC(=O)[C@@H](N)Cc1c[nH]cn1)[C@@H](C)O)[C@@H](C)O)C(C)C)C(=O)N[C@@H](CC(N)=O)C(=O)N[C@H](C(N)=O)[C@@H](C)O
EC50 [10]: 0.09 nM | EC50 [11]: 0.1 nM

Y[Aib]QGTFISDYSIYLDKQAA[Aib]EFVNWLLAGGPSSGAPPPSK(Palmitoyl)-NH2 [mt-358]
% Relative activity [12]: 710% | % Relative activity [13]: 11.9% | % Relative activity [14]: 314%

HSQGTFTSDYSKYLEERRAQDFVQWLMNT-NH2 [E15, E16 Gluc-NH2]
Percent Potency Relative to Native Ligand [15]: 9.2%

HXQGTFTSDYSKYLDEQAAKEFIAWLMNGGPSSGAPPPSK (acylated Lys at 40) [mt-364]
% Relative activity [16]: 350% | EC50 [16]: 0.0183 nM | % Relative activity [17]: 355% | EC50 [17]: 0.007 nM | % Relative activity [18]: 15.7% | % Relative activity [12]: 350% | % Relative activity [13]: 355% | % Relative activity [14]: 15.7% | % Relative activity [19]: 350% | % Relative activity [20]: 355% | % Relative activity [21]: 15.7%

H[Aib]QGTFTSDK([Trp-Palmitoyl])SKYLD[Aib]RRA[Aib]DFVC(PEG 40 kDa)WLMNT-NH2 [Glucagon (1-29a) Aib2 Lys10-Trp-C16 Aib16 Aib20 Cys24-40 kD]
EC50 [6]: 2.37 nM | EC50 [7]: 0.6 nM

B4: peptide of SEQ ID NO: 555 (peptide)
peptide: YSQGTFTSDYSKYLDEQAAKEFVNWLMNGGPSSGAPPPS-NH2
modifications: lactam 16-20; N-terminus assumed
SMILES: CSCC[C@H](NC(=O)[C@H](CC(C)C)NC(=O)[C@H](Cc1c[nH]c2ccccc12)NC(=O)[C@H](CC(N)=O)NC(=O)[C@@H](NC(=O)[C@H](Cc1ccccc1)NC(=O)[C@H](CCC(=O)O)NC(=O)[C@@H]1CCCCNC(=O)CC[C@H](NC(=O)[C@H](CC(=O)O)NC(=O)[C@H](CC(C)C)NC(=O)[C@H](Cc2ccc(O)cc2)NC(=O)[C@H](CCCCN)NC(=O)[C@H](CO)NC(=O)[C@H](Cc2ccc(O)cc2)NC(=O)[C@H](CC(=O)O)NC(=O)[C@H](CO)NC(=O)[C@@H](NC(=O)[C@H](Cc2ccccc2)NC(=O)[C@@H](NC(=O)CNC(=O)[C@H](CCC(N)=O)NC(=O)[C@H](CO)NC(=O)[C@@H](N)Cc2ccc(O)cc2)[C@@H](C)O)[C@@H](C)O)C(=O)N[C@@H](CCC(N)=O)C(=O)N[C@@H](C)C(=O)N[C@@H](C)C(=O)N1)C(C)C)C(=O)N[C@@H](CC(N)=O)C(=O)NCC(=O)NCC(=O)N1CCC[C@H]1C(=O)N[C@@H](CO)C(=O)N[C@@H](CO)C(=O)NCC(=O)N[C@@H](C)C(=O)N1CCC[C@H]1C(=O)N1CCC[C@H]1C(=O)N1CCC[C@H]1C(=O)N[C@@H](CO)C(N)=O
EC50 [22]: 0.044 nM | EC50 [23]: 0.062 nM
